Read-outs that look alike come from different tables or passages of the source.
Columns and labels:
[1] = molecular target: FLAG-tagged BicD2-Kif1bα tail fusion (mouse) (UniProt Q60575); experiment: centrosome recruitment assay with BicD2-kinesin tail fusions (relocalisation in cells, microscopy); N2A cells transfected with FLAG-BicD2-KIF tail fusion and EGFP-tagged RBP (2:3), fixed after 24 h, anti-FLAG staining; read-out log2 of the mean EGFP intensity at the centrosome over the mean intensity in the whole cell
Sequence of FLAG-tagged BicD2-Kif1bα tail fusion (mouse) (Q60575 other isoform, or with tags, fused parts or gaps): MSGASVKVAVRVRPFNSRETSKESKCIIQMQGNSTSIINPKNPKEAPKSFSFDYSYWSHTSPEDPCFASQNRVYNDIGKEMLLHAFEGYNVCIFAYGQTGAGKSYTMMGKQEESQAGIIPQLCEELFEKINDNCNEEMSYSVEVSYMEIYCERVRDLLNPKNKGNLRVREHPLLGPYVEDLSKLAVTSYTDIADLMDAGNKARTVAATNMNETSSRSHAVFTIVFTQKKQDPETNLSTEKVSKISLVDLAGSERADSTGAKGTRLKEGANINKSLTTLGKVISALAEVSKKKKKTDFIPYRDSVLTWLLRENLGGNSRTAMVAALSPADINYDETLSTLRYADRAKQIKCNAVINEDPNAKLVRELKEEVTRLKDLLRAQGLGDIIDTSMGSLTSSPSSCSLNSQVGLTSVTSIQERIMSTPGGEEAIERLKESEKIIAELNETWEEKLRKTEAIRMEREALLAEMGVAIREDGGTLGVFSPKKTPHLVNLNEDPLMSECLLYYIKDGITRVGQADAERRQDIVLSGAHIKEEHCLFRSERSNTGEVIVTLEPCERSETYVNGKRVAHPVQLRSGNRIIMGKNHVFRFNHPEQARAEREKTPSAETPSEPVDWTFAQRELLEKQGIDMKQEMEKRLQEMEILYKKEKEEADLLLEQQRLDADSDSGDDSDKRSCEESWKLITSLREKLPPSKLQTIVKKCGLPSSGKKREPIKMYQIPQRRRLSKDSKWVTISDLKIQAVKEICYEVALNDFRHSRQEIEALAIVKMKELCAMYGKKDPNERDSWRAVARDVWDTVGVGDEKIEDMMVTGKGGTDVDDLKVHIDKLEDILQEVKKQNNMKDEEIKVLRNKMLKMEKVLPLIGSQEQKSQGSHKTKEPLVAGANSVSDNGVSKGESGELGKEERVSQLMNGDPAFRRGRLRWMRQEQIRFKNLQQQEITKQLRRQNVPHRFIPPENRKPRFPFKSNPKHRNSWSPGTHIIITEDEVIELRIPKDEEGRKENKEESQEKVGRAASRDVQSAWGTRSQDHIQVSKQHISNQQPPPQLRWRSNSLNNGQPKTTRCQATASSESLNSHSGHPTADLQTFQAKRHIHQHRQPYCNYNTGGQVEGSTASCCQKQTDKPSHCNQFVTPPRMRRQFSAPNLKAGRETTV

[2] = molecular target: FLAG-tagged BicD2-Kif1c tail fusion (mouse) (UniProt O35071); experiment: as above
Sequence of FLAG-tagged BicD2-Kif1c tail fusion (mouse) (O35071 whole entry, the tested form may be a part): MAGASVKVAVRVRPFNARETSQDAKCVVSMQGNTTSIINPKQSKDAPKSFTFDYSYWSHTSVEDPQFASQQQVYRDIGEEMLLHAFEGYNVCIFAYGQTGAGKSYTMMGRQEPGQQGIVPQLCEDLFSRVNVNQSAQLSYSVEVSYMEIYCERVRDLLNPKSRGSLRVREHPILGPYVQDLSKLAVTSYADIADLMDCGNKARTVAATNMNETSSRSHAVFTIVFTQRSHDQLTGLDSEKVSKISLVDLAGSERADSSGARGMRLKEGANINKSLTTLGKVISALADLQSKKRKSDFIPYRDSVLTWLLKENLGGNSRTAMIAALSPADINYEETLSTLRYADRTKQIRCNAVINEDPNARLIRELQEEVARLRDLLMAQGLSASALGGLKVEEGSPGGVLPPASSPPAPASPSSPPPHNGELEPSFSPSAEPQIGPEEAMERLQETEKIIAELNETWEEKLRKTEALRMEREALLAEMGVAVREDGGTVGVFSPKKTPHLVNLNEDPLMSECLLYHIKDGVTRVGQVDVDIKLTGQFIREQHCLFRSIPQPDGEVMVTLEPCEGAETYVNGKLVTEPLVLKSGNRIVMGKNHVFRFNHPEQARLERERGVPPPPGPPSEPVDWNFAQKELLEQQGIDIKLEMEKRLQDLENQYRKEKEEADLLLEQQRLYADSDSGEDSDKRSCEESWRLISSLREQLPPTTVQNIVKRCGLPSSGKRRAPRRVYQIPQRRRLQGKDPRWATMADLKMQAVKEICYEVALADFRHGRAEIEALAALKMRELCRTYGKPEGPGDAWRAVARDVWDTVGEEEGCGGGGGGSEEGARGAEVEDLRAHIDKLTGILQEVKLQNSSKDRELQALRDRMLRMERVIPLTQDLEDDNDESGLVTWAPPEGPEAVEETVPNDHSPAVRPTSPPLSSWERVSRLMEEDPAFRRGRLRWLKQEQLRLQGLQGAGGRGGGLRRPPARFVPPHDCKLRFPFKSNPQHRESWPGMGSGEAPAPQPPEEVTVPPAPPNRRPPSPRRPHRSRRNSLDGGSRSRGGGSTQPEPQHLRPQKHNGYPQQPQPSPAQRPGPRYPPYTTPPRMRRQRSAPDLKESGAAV

[3] = molecular target: mScarlet-I-Kif1bα (full-length kinesin) (mouse) (UniProt Q60575); experiment: co-IP; N2A cells 48 h after co-transfection of EGFP-MBNL1-41 and mScarlet-Kif plasmids; lysis in 10 mM Tris-HCl pH 7.5, 150 mM NaCl, 0.5 mM EDTA, 0.5% NP-40; RFP-Trap magnetic agarose 1 h at 4 °C; western blot, quantitation normalized to input
Sequence of mScarlet-I-Kif1bα (full-length kinesin) (mouse) (Q60575 other isoform, or with tags, fused parts or gaps): as the sequence (Q60575 other isoform, or with tags, fused parts or gaps) above

[4] = molecular target: mScarlet-I-Kif1c (full-length kinesin) (mouse) (UniProt O35071); experiment: as above
Sequence of mScarlet-I-Kif1c (full-length kinesin) (mouse) (O35071 whole entry, the tested form may be a part): as the sequence (O35071 whole entry, the tested form may be a part) above

[5] = molecular target: FLAG-tagged BicD2-Kif1c tail fusion (mouse) (UniProt O35071); experiment: centrosome recruitment assay with BicD2-kinesin tail fusions (relocalisation in cells, microscopy); N2A cells transfected with FLAG-BicD2-KIF tail fusion and EGFP-tagged RBP (2:3), fixed after 24 h, anti-FLAG staining; read-out log2 of the mean EGFP intensity at the centrosome over the mean intensity in the whole cell; remark: listed apart in the source

Sequence of EGFP-MBNL1-41 (41 kDa isoform of MBNL1) (natural protein) (Q9NR56 whole entry, canonical isoform): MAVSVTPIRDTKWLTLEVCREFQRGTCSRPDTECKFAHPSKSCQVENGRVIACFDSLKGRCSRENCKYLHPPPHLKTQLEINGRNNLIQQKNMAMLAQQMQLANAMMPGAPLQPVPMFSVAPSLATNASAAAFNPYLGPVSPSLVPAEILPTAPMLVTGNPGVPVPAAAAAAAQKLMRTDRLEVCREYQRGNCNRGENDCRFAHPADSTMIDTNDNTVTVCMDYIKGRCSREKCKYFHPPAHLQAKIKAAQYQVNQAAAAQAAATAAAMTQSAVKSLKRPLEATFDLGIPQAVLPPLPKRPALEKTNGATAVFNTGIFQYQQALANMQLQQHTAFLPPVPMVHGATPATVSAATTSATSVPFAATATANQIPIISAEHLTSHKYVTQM
Sequence of EGFP-Cpsf4 (Q8BQZ5 whole entry): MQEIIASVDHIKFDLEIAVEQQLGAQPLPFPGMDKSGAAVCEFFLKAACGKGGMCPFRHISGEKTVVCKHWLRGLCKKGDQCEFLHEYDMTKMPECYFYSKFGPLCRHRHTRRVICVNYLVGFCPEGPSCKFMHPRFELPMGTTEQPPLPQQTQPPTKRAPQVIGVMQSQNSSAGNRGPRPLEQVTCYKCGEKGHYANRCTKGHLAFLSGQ

| Substance | log2 mean centrosome recruitment [1] | log2 mean centrosome recruitment [2] | fold enrichment of co-precipitated EGFP-MBNL1 as compared to Kif1bβ [3] | fold enrichment of co-precipitated EGFP-MBNL1 as compared to Kif1bβ [4] | log2 mean centrosome enrichment [5] | log2 mean centrosome enrichment [1] | log2 mean centrosome enrichment [2] |
| --- | --- | --- | --- | --- | --- | --- | --- |
| EGFP-Cpsf4 (from UniProt Q8BQZ5 1-211) (natural protein) | 1.71 log2 | 1.52 log2 | – | – | – | – | – |
| EGFP-MBNL1-41 (41 kDa isoform of MBNL1) (natural protein) | – | – | 10 fold | 10 fold | 0.497 log2 | 0.506 log2 | 0.56 log2 |
